Source: the supplement of paper PMC10724198
± gives the standard deviation of the averaged measurements.

Assays:
Saccharomyces cerevisiae [1] = test: protein stability index of tFT-peptide fusion (C-terminal peptide) (PSI (0-1 scale)); higher = more stable (slower turnover); settings: genetic background: wild type; temperature: 30 C
Saccharomyces cerevisiae [2] = test: as above
Experimental: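 MPS profiling in S. cerevisiae of the tFT-X12 degron library: putative degron peptides plus stable controls, 12 aa, fused to the C-terminus of a sfGFP-mCherry timer. Cells are FACS-sorted into 8 mCherry/sfGFP bins and deep-sequenced. PSI runs from 0 (unstable) to 1 (stable). Backgrounds are wild type, das1Δ and doa10Δ at 30 °C, and wild type, das1Δ, cdc34-1 and cdc53-1 at 37 °C; 2-3 technical replicates each.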

[3] = genetic background: cdc34-1, temperature: 37 C
[4] = genetic background: cdc53-1, temperature: 37 C
[5] = genetic background: das1 deletion, temperature: 30 C
[6] = genetic background: das1 deletion, temperature: 37 C
[7] = genetic background: doa10 deletion, temperature: 30 C
[8] = genetic background: wild type, temperature: 30 C
[9] = genetic background: wild type, temperature: 37 C
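Also: PSI is a weighted mean of sequencing reads over stability bins, variants kept only with over 10 reads, mCherry proximal and sfGFP distal, peptide attached via GGGS linker.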

| Sequence | protein stability index (Saccharomyces cerevisiae [1]) | protein stability index (Saccharomyces cerevisiae [2]; [3]) | protein stability index (Saccharomyces cerevisiae [2]; [4]) | protein stability index (Saccharomyces cerevisiae [2]; [5]) | protein stability index (Saccharomyces cerevisiae [2]; [6]) | protein stability index (Saccharomyces cerevisiae [2]; [7]) | protein stability index (Saccharomyces cerevisiae [2]; [8]) | protein stability index (Saccharomyces cerevisiae [2]; [9]) |
| --- | --- | --- | --- | --- | --- | --- | --- | --- |
| LLPLLLFFSLLR | 0.466 ± 0.03 | 0.223 ± 0.019 | 0.158 ± 0.02 | 0.34 ± 0.034 | 0.4062 ± 0.0013 | 0.601 ± 0.05 | 0.318 ± 0.034 | 0.373 ± 0.04 |
| YNNKITRYRRDS | 0.52 ± 0.082 | 0.654 ± 0.053 | 0.731 ± 0.034 | 0.661 ± 0.055 | 0.752 ± 0.0077 | 0.388 ± 0.012 | 0.375 ± 0.024 | 0.612 ± 0.0082 |
| PLCCFFLLVCSH | 0.246 ± 0.023 | 0.117 ± 0.022 | 0.166 ± 0.005 | 0.193 ± 0.019 | 0.2814 ± 0.002 | 0.165 ± 0.0015 | 0.176 ± 0.0079 | 0.221 ± 0.014 |
| FVCSSVFVVLLF | 0.45 ± 0.044 | 0.349 ± 0.017 | 0.423 ± 0.023 | 0.295 ± 0.029 | 0.4769 ± 0.001 | 0.264 ± 0.017 | 0.294 ± 0.054 | 0.464 ± 0.026 |
| VFFGCIWSIVYN | 0.2962 ± 0.0012 | 0.247 ± 0.022 | 0.302 ± 0.12 | 0.213 ± 0.035 | 0.41 ± 0.018 | 0.181 ± 0.014 | 0.229 ± 0.042 | 0.377 ± 0.011 |
| VRSTFVLGRWFA | 0.228 ± 0.062 | 0.57 ± 0.0089 | 0.711 ± 0.0072 | 0.653 ± 0.029 | 0.7495 ± 0.0021 | 0.133 ± 0.0064 | 0.159 ± 0.018 | 0.312 ± 0.083 |
| PFGYYLFVPVCY | 0.349 ± 0.0044 | 0.29 ± 0.0094 | 0.343 ± 0.021 | 0.265 ± 0.029 | 0.3985 ± 0.00045 | 0.238 ± 0.0039 | 0.25 ± 0.027 | 0.364 ± 0.0044 |
| LVGTRTIFCFLH | 0.3164 ± 0.002 | 0.618 ± 0.017 | 0.721 ± 0.0084 | 0.57 ± 0.018 | 0.741 ± 0.027 | 0.207 ± 0.0076 | 0.218 ± 0.026 | 0.401 ± 0.0054 |
| GWLFTFTCAFRV | 0.479 ± 0.058 | 0.429 ± 0.01 | 0.441 ± 0.014 | 0.443 ± 0.027 | 0.482 ± 0.012 | 0.4984 ± 0.0014 | 0.428 ± 0.016 | 0.4672 ± 0.0025 |
| VWVLLCKYVILL | 0.218 ± 0.0091 | 0.228 ± 0.034 | 0.3521 ± 0.0031 | 0.237 ± 0.036 | 0.457 ± 0.0046 | 0.139 ± 0.021 | 0.145 ± 0.014 | 0.268 ± 0.023 |
| YILPTPTVISLA | 0.337 ± 0.029 | 0.262 ± 0.025 | 0.271 ± 0.006 | 0.249 ± 0.034 | 0.3667 ± 0.0033 | 0.211 ± 0.0069 | 0.256 ± 0.021 | 0.326 ± 0.01 |
| GFWLAFLWYRES | 0.4406 ± 0.0022 | 0.386 ± 0.067 | 0.507 ± 0.021 | 0.34 ± 0.035 | 0.548 ± 0.016 | 0.222 ± 0.015 | 0.248 ± 0.036 | 0.433 ± 0.033 |
| PRGFVRVDLLIF | 0.383 ± 0.064 | 0.302 ± 0.021 | 0.481 ± 0.07 | 0.273 ± 0.027 | 0.442 ± 0.017 | 0.191 ± 0.0062 | 0.208 ± 0.031 | 0.37 ± 0.022 |
| KICAVRVIMDWC | 0.4769 ± 0.0044 | 0.459 ± 0.059 | 0.542 ± 0.012 | 0.383 ± 0.044 | 0.566 ± 0.017 | 0.351 ± 0.0053 | 0.379 ± 0.018 | 0.564 ± 0.014 |
| EINRKKRKTKIN | 0.436 ± 0.04 | 0.704 ± 0.047 | 0.7155 ± 0.0039 | 0.67 ± 0.047 | 0.771 ± 0.011 | 0.312 ± 0.023 | 0.373 ± 0.018 | 0.465 ± 0.044 |
| VFCSRSLISVVS | 0.313 ± 0.027 | 0.193 ± 0.03 | 0.243 ± 0.072 | 0.208 ± 0.041 | 0.355 ± 0.007 | 0.165 ± 0.014 | 0.192 ± 0.03 | 0.303 ± 0.011 |
| CLHWFMVLFRVL | 0.119 ± 0.022 | 0.139 ± 0.051 | 0.12 ± 0.018 | 0.296 ± 0.043 | 0.426 ± 0.0053 | 0.212 ± 0.013 | 0.122 ± 0.037 | 0.203 ± 0.015 |
| RHCCIVPLCRVR | 0.464 ± 0.045 | 0.491 ± 0.061 | 0.512 ± 0.013 | 0.324 ± 0.028 | 0.555 ± 0.028 | 0.285 ± 0.013 | 0.321 ± 0.028 | 0.507 ± 0.0081 |
| ASTGPLAAIRVY | 0.495 ± 0.013 | 0.519 ± 0.0057 | 0.622 ± 0.023 | 0.396 ± 0.028 | 0.5994 ± 0.0011 | 0.377 ± 0.035 | 0.41 ± 0.019 | 0.588 ± 0.017 |
